Numbering of substitutions follows the chain as printed. In names and notes the source's numbering stands. Each block holds one binder with its values, some of them ahead of it.
Columns and labels:
[1] = biological target: T1, CD123-Fc (Sino Biological) (human, UniProt P26951 19-305); test: ELISA of MBP fusions for binding to CD123 (FIG. 3)
T1 construct: Bought reagent; not shown: Fc of the bought fusion (detected with anti-human Fc, captured on AHC sensor)
T1 sequence: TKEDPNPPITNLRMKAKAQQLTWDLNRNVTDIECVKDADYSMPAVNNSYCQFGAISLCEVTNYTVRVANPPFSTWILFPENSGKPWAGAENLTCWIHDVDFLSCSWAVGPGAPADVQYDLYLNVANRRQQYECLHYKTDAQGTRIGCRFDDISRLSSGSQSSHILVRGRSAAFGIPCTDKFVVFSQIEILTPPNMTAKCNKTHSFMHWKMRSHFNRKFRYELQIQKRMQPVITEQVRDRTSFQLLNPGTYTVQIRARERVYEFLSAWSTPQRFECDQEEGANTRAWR
Protocol: (§1) Parent and mutated variant D domains were expressed as MBP fusions in E. coli (T7 Express, New England Biolabs) by either IPTG (isopropylthio-(3-galactoside) induction for 4 hours at 37° C. in Luria broth containing antibiotics and 0.2% glucose or through auto-induction for 16 hours at 30° C. using MagicMedia (Life Technologies). Post induction, cells were pelleted, washed and resuspended in “leak-out buffer” comprising 200 mM Tris pH 7.5 and 20 mM EDTA. After incubation at 30° C. for 16 hours, supernatant containing MBP fusion proteins were assayed by ELISA for both target binding and expression. Supernatants were added to 96-well Immulon 4HBX microtiter plates coated with anti-MBP polyclonal antibody (Abcam) at 0.0032 ug/ml. Followed by washing, bound MBP fusion proteins were detected either with CD123-Fc (Sino Biological)+anti-human Fc HRP (Abcam) to assess CD123 binding, or with anti-MBP-HRP (New England Biolabs) to assess MBP fusion protein expression.

[2] = biological target: T1, CD123-Fc (Sino Biological); test: ELISA: MBP fusion captured on anti-MBP antibody, detected with CD123-Fc + anti-human Fc HRP
Protocol: as §1

[3] = biological target: T1, CD123-Fc (Sino Biological); test: ELISA of MBP fusions normalized for protein concentration, serial dilution
Protocol: as §1

[4] = biological target: T1, CD123-Fc (Sino Biological); test: BLI (Octet), CD123-Fc captured on AHC sensor, Adapter 500-0.69 nM in solution, global 1:1 fit, 25 C
Protocol: To assess the kinetics of CD123 binding, Adapter proteins comprising the D domains were analyzed using Bio-Layer Interferometry (BLI). Adapter proteins comprising a CD123-binding D domain and a P26(Q26-V229) AFP polypeptide (SEQ ID NO: 39) were generated through transient transfection of HEK-293 cells, followed by Ni-Sepharose Excel (Cytiva) and SEC chromatography. BLI experiments were performed using an Octet RED386 (Sartorius). All experiments were performed at 25° C. in kinetic buffer (PBS, 0.1% BSA, 0.02% tween 20) under constant 1000 rpm agitation. CD123-Fc (20 nM) was captured on an AHC sensor (Sartorius) for 250 seconds to a loading density of ˜0.8 nm. […] The surface was regenerated by 3 rounds of 10 seconds of 10 mM Glycine pH 1.5, followed by kinetic buffer. The data was analyzed using a global fit with a 1:1 interaction model from Sartorius Octet Analysis studio.

[5] = biological target: T2, CD123 expressed on the surface of cells (OCI-AML2, MOLM13, NALM6-CD123+) (human, UniProt P26951 19-378); test: flow cytometry
T2 chain: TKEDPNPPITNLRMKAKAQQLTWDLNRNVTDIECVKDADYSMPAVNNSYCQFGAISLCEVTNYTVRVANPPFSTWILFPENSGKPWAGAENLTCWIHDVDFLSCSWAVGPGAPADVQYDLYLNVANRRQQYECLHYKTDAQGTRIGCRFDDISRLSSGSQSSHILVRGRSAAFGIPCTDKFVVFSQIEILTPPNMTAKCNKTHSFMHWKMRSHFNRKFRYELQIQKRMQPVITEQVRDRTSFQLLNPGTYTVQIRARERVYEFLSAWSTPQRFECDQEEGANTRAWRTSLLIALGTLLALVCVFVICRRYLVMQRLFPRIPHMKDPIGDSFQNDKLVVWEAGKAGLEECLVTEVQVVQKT

[6] = biological target: T1, CD123-Fc (Sino Biological); test: method not stated in the sentence (BLI of Adapters follows)

B1: 5S5W D domain as MBP fusion (designed binder, not shown: large carriers)
chain: MGSWSEFNMRLDAIYERLTALGGSEAELAAFEKEIAAFESELQAYKGKGNPEVEWLRHSAARIRLELQAYRHN
binding result [1]: binds

B6: Adapter protein comprising the 6T1D D domain and a P26(Q26-V229) AFP polypeptide (designed binder)
chain: MGSWDEFGRRLYAIEWQLYALGGTEAELAAFEKEIAAFESELQAYKGKGNPEVEKLREIAAVIRENLQAYRHNQESQALAKRSCGLFQKLGEYYLQNAFLVAYTKKAPQLTSSELMAITRKMAATAATCCQLSEDKLLACGEGAADIIIGHLCIRHEMTPVNPGVGQCCTSSYANRRPCFSSLVVDETYVPPAFSDDKFIFHKDLCQAQGVALQTMKQEFLINLVKQKPQITEEQLEAVIADFSGLLEKCCQGQEQEVCFAEEGQKLISKTRAALGV
notes: also called parental D domain (6T1D); not shown: His tag (purified on Ni-Sepharose)
Kd [4]: 7.6 nM
koff [4]: 0.00105 s⁻¹
kon [4]: 139000 M⁻¹ s⁻¹
EC50 [5]: 2.61 µg/mL

B7: Adapter protein comprising the 4I0K D domain and a P26(Q26-V229) AFP polypeptide (designed binder)
chain: B6 chain with W16S
notes: also called 6T1D(W16S); not shown: His tag (purified on Ni-Sepharose)
Kd [4]: 14 nM
koff [4]: 0.00252 s⁻¹
kon [4]: 177000 M⁻¹ s⁻¹
EC50 [5]: 4.26 µg/mL

B8: Adapter protein comprising the 4R8U D domain and a P26(Q26-V229) AFP polypeptide (designed binder)
chain: B6 chain with K48E, N50S
notes: also called 6T1D(K48E, N50S); not shown: His tag (purified on Ni-Sepharose)
Kd [4]: 1.2 nM
koff [4]: 0.000304 s⁻¹
kon [4]: 254000 M⁻¹ s⁻¹
EC50 [5]: 1.9 µg/mL

B11: Adapter protein comprising the 1F9I D domain and a P26(Q26-V229) AFP polypeptide (designed binder)
chain: B6 chain with L21Q, I59L
notes: also called 6T1D(L21Q, I59L); not shown: His tag (purified on Ni-Sepharose)
Kd [4]: 7.6 nM
koff [4]: 0.000646 s⁻¹
kon [4]: 85200 M⁻¹ s⁻¹

B12: Adapter protein comprising the 3F4N D domain and a P26(Q26-V229) AFP polypeptide (designed binder)
chain: B6 chain with N50S
notes: also called 6T1D(N50S); not shown: His tag (purified on Ni-Sepharose)
Kd [4]: 1.3 nM
koff [4]: 0.000275 s⁻¹
kon [4]: 213000 M⁻¹ s⁻¹
EC50 [5]: 1.83 µg/mL

B13: Adapter protein comprising the 0C8S D domain and a P26(Q26-V229) AFP polypeptide (designed binder)
chain: B6 chain with G8S, K48E, N50S, I59L
notes: also called 0085; 6T1D(G8S, K48E, N50S, I59L); not shown: His tag (purified on Ni-Sepharose)
Kd [4]: 1 nM
koff [4]: 0.000151 s⁻¹
kon [4]: 146000 M⁻¹ s⁻¹
EC50 [5]: 2.44 µg/mL

B15: Adapter protein comprising the 5B1Q D domain and a P26(Q26-V229) AFP polypeptide (designed binder)
chain: B6 chain with G8S, L21Q, K48E, N50S, I59L
notes: also called 6T1D(G8S, L21Q, K48E, N50S, I59L); not shown: His tag (purified on Ni-Sepharose)
Kd [4]: 0.73 nM
koff [4]: 0.000136 s⁻¹
kon [4]: 187000 M⁻¹ s⁻¹
fold enhancement of affinity over that of 6T1D [6]: ~10 fold
EC50 [5]: 3.22 µg/mL

The remaining lines, values ahead:

binding result [2]: binds
B2: 5B7L D domain as MBP fusion (designed binder, not shown: large carriers)
chain: B1 chain with S5I, T19V, H58K, S59V, R62N

binding result [3]: binds
B3: 1J1K D domain as MBP fusion (designed binder, not shown: large carriers; small tags and cut ends)
chain: MGSWDEFSRRLYAIEWRLYALGGSEAELAAFEKEIAAFESELQAYKGKGNPEVEKLREIAAVIRSNLQAYRHN
notes: also called 8W9C (G8S)

binding result [3]: binds
B4: 6Z5E D domain as MBP fusion (designed binder, not shown: large carriers; small tags and cut ends)
chain: B3 chain with S8G, N50S
notes: also called 8W9C (N50S)

binding result [3]: binds
B5: 4H2H D domain as MBP fusion (designed binder, not shown: large carriers; small tags and cut ends)
chain: B3 chain with S8G, K48I, K55N
notes: also called 8W9C (K48I, K55N)

Kd [4]: 28 nM
koff [4]: 0.00665 s⁻¹
kon [4]: 235000 M⁻¹ s⁻¹
EC50 [5]: 4.62 µg/mL
B9: Adapter protein comprising the 8O3S D domain and a P26(Q26-V229) AFP polypeptide (designed binder)
chain: B6 chain with W16T
notes: also called 6T1D(W16T); not shown: His tag (purified on Ni-Sepharose)

Kd [4]: 18 nM
koff [4]: 0.00353 s⁻¹
kon [4]: 197000 M⁻¹ s⁻¹
B10: Adapter protein comprising the 6K4C D domain and a P26(Q26-V229) AFP polypeptide (designed binder)
chain: B6 chain with D5A
notes: also called 6T1D(D5A); not shown: His tag (purified on Ni-Sepharose)

Kd [4]: 5.2 nM
koff [4]: 0.000924 s⁻¹
kon [4]: 177000 M⁻¹ s⁻¹
B14: Adapter protein comprising the 8W9C D domain and a P26(Q26-V229) AFP polypeptide (designed binder)
chain: B6 chain with Q17R, T24S, E65S
notes: also called wild type; not shown: His tag (purified on Ni-Sepharose)

From US20240124605A1 (published 2024)
